Values quoted from earlier work as cited in US10011657B2, “Anti-CS1 antibodies and antibody drug conjugates” (AbbVie Biotherapeutics Inc., priority 2014, dated 2018).

Test system: relapsed or refractory multiple myeloma
Details: elotuzumab added to lenalidomide and dexamethasone vs lenalidomide and dexamethasone control group; cited from earlier work

B1: Elotuzumab: monoclonal humanized IgG1 anti-CS1 antibody disclosed as HuLuc63 in U.S. Pat. No. 7,709,610 (antibody, V domains shown)
VH: EVQLVESGGGLVQPGGSLRLSCAASGFDFSRYWMSWVRQAPGKGLEWIGEINPDSSTINYAPSLKDKFIISRDNAKNSLYLQMNSLRAEDTAVYYCARPDGNYWYFDVWGQGTLVTVSS
VL: DIQMTQSPSSLSASVGDRVTITCKASQDVGIAVAWYQQKPGKVPKLLIYWASTRHTGVPDRFSGSGSGTDFTLTISSLQPEDVATYYCQQYSSYPYTFGQGTKVEIKR
Relative reduction in the risk of disease progression or death: 30%
